Consider 50 sequences from the Immune Epitope Database (IEDB).

Bounds are passed on as bounds.

The target in one assay is HLA-A*26:01. Kind of assay: IEDB peptide-MHC binding, purified MHC/competitive/radioactivity; filed as Kd, often an IC50 or EC50 that approximates it; ≥ and ≤ were set here for values at or beyond the usual limits of such assays.
In the next assay the target is HLA-A*23:01. The description is as above.
The next assay deals with HLA-A*30:02. The description is as above.
A further assay addresses HLA-A*30:01. The assay is described as above.
The target of another assay is HLA-A*24:02. Described as above.
The next assay has as its target HLA-A*29:02. Described as above.
For the next assay, the target named is HLA-A*02:01. Kind of assay: IEDB peptide-MHC binding, purified MHC/direct/fluorescence; filed as Kd, often an IC50 or EC50 that approximates it; ≥ and ≤ were set here for values at or beyond the usual limits of such assays.
For a further assay, the target named is HLA-B*44:02. Kind of assay: IEDB peptide-MHC binding, purified MHC/competitive/radioactivity; filed as Kd, often an IC50 or EC50 that approximates it; ≥ and ≤ were set here for values at or beyond the usual limits of such assays.
Assay [1] has as its target HLA-A*01:01. Kind of assay: IEDB peptide-MHC binding, purified MHC/direct/fluorescence; filed as Kd, often an IC50 or EC50 that approximates it; ≥ and ≤ were set here for values at or beyond the usual limits of such assays.
Assay [2] deals with HLA-A*03:01. Kind of assay: IEDB peptide-MHC binding, purified MHC/competitive/radioactivity; filed as Kd, often an IC50 or EC50 that approximates it; ≥ and ≤ were set here for values at or beyond the usual limits of such assays. The following applies: source organism: Dengue virus 1 Brazil/97-11/1997.
Assay [3] addresses HLA-A*03:01. Kind of assay: IEDB peptide-MHC binding, purified MHC/direct/fluorescence; filed as Kd, often an IC50 or EC50 that approximates it; ≥ and ≤ were set here for values at or beyond the usual limits of such assays. The following applies: source organism: Entamoeba histolytica HM-1:IMSS.
Assay [4] concerns the target HLA-A*01:01. Kind of assay: IEDB peptide-MHC binding, purified MHC/competitive/radioactivity; filed as Kd, often an IC50 or EC50 that approximates it; ≥ and ≤ were set here for values at or beyond the usual limits of such assays.
Another assay addresses HLA-A*69:01. Kind of assay: IEDB peptide-MHC binding, purified MHC/direct/fluorescence; filed as Kd, often an IC50 or EC50 that approximates it; ≥ and ≤ were set here for values at or beyond the usual limits of such assays.
The target in a further assay is HLA-B*15:01. The assay is described as above. The following applies: source organism: Mammarenavirus juninense.
Another assay addresses HLA-A*02:06. Kind of assay: IEDB peptide-MHC binding, purified MHC/competitive/radioactivity; filed as Kd, often an IC50 or EC50 that approximates it; ≥ and ≤ were set here for values at or beyond the usual limits of such assays.
A further assay concerns the target HLA-A*02:02. The description is as above.
In a further assay the target is HLA-A*02:03. The assay is described as above.
[5] abbreviates: source organism: Dengue virus 2 Jamaica/1409/1983.
Where [6] appears, read: source organism: Dengue virus 4 Philippines/H241/1956.
[7] abbreviates: source organism: Dengue virus 3 Martinique/1243/1999.
Where [8] appears, read: source organism: Mammarenavirus guanaritoense.
The mark [9] stands for this setting: source organism: Dengue virus 1 Brazil/97-11/1997.
Setting [10] is: source organism: Vaccinia virus WR.
Setting [11] is: source organism: Salmonella enterica subsp. enterica serovar Paratyphi A.
Setting [12] is: source organism: Encephalitozoon cuniculi.
[13] abbreviates: source organism: Serratia proteamaculans.
Setting [14] is: source organism: Lymphocytic choriomeningitis virus (strain Armstrong).

The Kd is the constant that tells how readily two partners part at equilibrium. For the sequence EKTQAIDGEF, in the assay with HLA-A*26:01 (source organism: Dengue virus 4 Dominica/814669/1981), the Kd is no less than 69.7 µM.
Turning to GYISTRVEM, the Kd with HLA-A*23:01 (setting [5]) worked out at 1.14 µM.
Turning to AGGLLLAAY, the Kd in the assay with HLA-A*30:02 (setting [6]) turned out to be 0.0597 µM.
In the case of NAICSAVPVH, the Kd in the assay with HLA-A*30:01 (setting [7]) stood at 2.95 µM.
In the case of SSVNMISRM, in the assay with HLA-A*26:01 (setting [5]), the Kd turned out to be 1.34 µM.
As for NFGTFYEHI, the figures for the Kd in the assay with HLA-A*23:01 (setting [8]), with HLA-A*24:02 (setting [8]) and with HLA-A*29:02 (setting [8]) were 0.451 µM, 1.95 µM and 0.4 µM, respectively.
ALPPPPPPP registered a Kd with HLA-A*02:01 (source organism: Homo sapiens) of 12.7 µM.
For TFIRSTMPL, in the assay with HLA-A*23:01 (setting [6]), the Kd stood at 0.255 µM.
In the case of GDNALKINW, in the assay with HLA-B*44:02 (setting [7]), the Kd was 0.15 µM.
RRRTAGMII: the Kd with HLA-A*30:01 (source organism: Dengue virus 2 Peru/IQT2913/1996) was found to be 4.83 µM.
ALTLATGPIT: in the assay with HLA-A*30:01 (setting [7]), the Kd worked out at 0.159 µM.
For the sequence SITLATGPLT, in the assay with HLA-A*30:01 (setting [9]), the Kd came out at 3.93 µM.
As for RSKAFSNCY, the Kd in the assay with HLA-A*01:01 [1] (source organism: Influenza A virus (A/duck/Ontario/05/00 (H3N2))) was no less than 20 µM.
STVSQLAKRF: in the assay with HLA-A*26:01 (source organism: Dengue virus 1 Nauru/West Pac/1974), the Kd worked out at 3.59 µM.
Consider QNYVCKHTY, for which, in the assay with HLA-A*30:02 (setting [7]), the Kd is no less than 76.9 µM.
Regarding HVFQEYRLK, the Kd in the assay with HLA-A*30:01 (setting [10]) was determined as 0.0266 µM.
Turning to HLRDQSIKI, the Kd in the assay with HLA-A*30:01 (setting [10]) is 0.0152 µM.
With EISNMLSII, the Kd in the assay with HLA-A*26:01 (setting [7]) is 3.37 µM.
For VVRVQRPAK, the Kd is 0.126 µM in the assay with HLA-A*03:01 [2] and 0.0224 µM in the assay with HLA-A*30:01 (setting [9]).
Sequence NMDRAVKLY displayed a Kd with HLA-A*01:01 [1] (source organism: Influenza A virus (A/Hong Kong/488/97(H5N1))) of 0.584 µM.
FMFGPTIYY gave a Kd with HLA-A*03:01 [3] of 0.043 µM.
Regarding ITDFVGKTV, in the assay with HLA-A*01:01 [4] (source organism: Dengue virus 3 Singapore/8120/1995), the Kd was no less than 39.7 µM.
KEMAETQHG: the Kd with HLA-B*44:02 (setting [6]) was 0.143 µM.
Turning to AQLPRWVAT, the Kd with HLA-A*02:01 (setting [11]) was found to be 19.9 µM; with HLA-A*69:01 (setting [11]), 7 µM.
Regarding GAKIIHRYA, the Kd with HLA-A*30:01 (setting [10]) was 0.118 µM.
For VTARWLWGFL, the Kd in the assay with HLA-A*01:01 [4] (source organism: Dengue virus 1 Singapore/S275/1990) is 8.66 µM.
For ITTATRCPTQ, the Kd with HLA-A*30:01 (setting [6]) worked out at 9.44 µM.
For LFSGVSWTM, the Kd with HLA-A*24:02 (setting [9]) worked out at 0.449 µM.
Regarding PTSEIQLTDY, the Kd is 0.255 µM with HLA-A*01:01 [4] (setting [9]) and no less than 69.7 µM with HLA-A*26:01 (setting [9]).
Regarding NEWITDFAG, the dissociation constant (Kd) with HLA-B*44:02 (setting [7]) amounted to 6.55 µM.
Regarding QSDTVFDYY, the Kd was no less than 32.5 µM with HLA-A*23:01 (setting [10]) and no less than 72.7 µM with HLA-A*24:02 (setting [10]).
As to TTMRGAKRM, the Kd with HLA-A*26:01 (setting [5]) stood at 8.19 µM.
In the case of QWFVERNMVI, the Kd with HLA-A*23:01 (setting [7]) turned out to be 0.111 µM; with HLA-A*24:02 (setting [7]), 0.121 µM.
Regarding RYMGEDGCWY, the Kd is 0.828 µM with HLA-A*24:02 (setting [7]) and no less than 69.7 µM in the assay with HLA-A*30:02 (setting [7]).
As for GVYPMSIPAT, in the assay with HLA-A*30:01 (setting [9]), the Kd worked out at 10.4 µM.
As for KVSCTILAA, in the assay with HLA-A*30:01 (setting [5]), the Kd was found to be 0.0677 µM.
Consider NLITCNDHY, for which, in the assay with HLA-A*01:01 [1] (source organism: Mammarenavirus juninense), the Kd is no less than 20 µM.
CSRCLSLFY: the Kd in the assay with HLA-A*30:01 (setting [10]) was 0.0221 µM.
LLFLPKAAY returned a Kd with HLA-B*15:01 of 0.0994 µM.
For KVRSNAAIG, the Kd with HLA-A*30:01 (setting [9]) came out at 0.0136 µM.
On to RTIMAVLFV, for which the Kd in the assay with HLA-A*02:06 (setting [6]) is 0.0194 µM; with HLA-A*30:01 (setting [6]), 0.135 µM.
As to KMYEYVFKG, the Kd was 0.0404 µM with HLA-A*02:01 (setting [12]) and no less than 20 µM with HLA-A*69:01 (setting [12]).
GMPNWCVSI: the values for the Kd with HLA-A*02:01 (setting [13]) and in the assay with HLA-A*69:01 (setting [13]) were 0.0247 µM and 3.41 µM, respectively.
Take RSKNTIIIA: the Kd in the assay with HLA-A*30:01 (setting [10]) was found to be 0.000163 µM.
With DYFESFSSFF, the Kd was found to be 0.00472 µM with HLA-A*23:01 (setting [14]), 0.011 µM in the assay with HLA-A*24:02 (setting [14]) and 0.000356 µM with HLA-A*29:02 (setting [14]).
With HQYPANLFY, in the assay with HLA-A*30:01 (setting [10]), the Kd turned out to be 0.0508 µM.
In the case of STFNMWREI, the Kd worked out at 5.82 µM in the assay with HLA-A*02:02 (setting [10]), 0.713 µM in the assay with HLA-A*02:03 (setting [10]) and 0.0946 µM with HLA-A*02:06 (setting [10]).
For the sequence AVYNFATCGI, the Kd is 0.0253 µM with HLA-A*02:02 (setting [14]), 0.00728 µM with HLA-A*02:03 (setting [14]) and 0.0252 µM with HLA-A*02:06 (setting [14]).
Consider GLLDSIKMI, for which the Kd with HLA-A*02:02 (setting [10]) stood at 0.08 µM; with HLA-A*02:03 (setting [10]), 0.0141 µM; in the assay with HLA-A*02:06 (setting [10]), 0.0434 µM.
Take HEMYWISNG: the Kd in the assay with HLA-B*44:02 (setting [7]) was 0.495 µM.
